Results reported in US6753317.
Non-standard residues stand in square brackets, D forms with d. *: point of attachment. des‑NH2‑α‑pyrrolidine‑1‑yl = Dmt (2',6'-dimethyl-L-tyrosine) with the α-amine replaced by pyrrolidine-1-yl, Cc1cc(O)cc(C)c1C[C@@H](C(=O)*)N1CCCC1; des‑NH2‑α‑pyrrole‑1‑yl = replacement of the α-amino group by a pyrrol-1-yl group; NH(1-Adamantyl) = C1C2CC3CC1CC(N*)(C2)C3; Dmt = Cc1cc(O)cc(C)c1C[C@H](N)C(=O)O; NH‑tetrazole‑5‑yl = n1nc(N*)n[nH]1; Tic = O=C(O)[C@@H]1Cc2ccccc2CN1; dTic = O=C(O)[C@H]1Cc2ccccc2CN1; NHtBu = CC(C)(C)N*

Molecular target: δ-opioid receptor of the mouse vas deferens (MVD) (mouse), P32300
Test: cell-based or functional assay

Chain of δ-opioid receptor of the mouse vas deferens (MVD) (mouse), P32300 (P32300 whole entry, stated change not applied): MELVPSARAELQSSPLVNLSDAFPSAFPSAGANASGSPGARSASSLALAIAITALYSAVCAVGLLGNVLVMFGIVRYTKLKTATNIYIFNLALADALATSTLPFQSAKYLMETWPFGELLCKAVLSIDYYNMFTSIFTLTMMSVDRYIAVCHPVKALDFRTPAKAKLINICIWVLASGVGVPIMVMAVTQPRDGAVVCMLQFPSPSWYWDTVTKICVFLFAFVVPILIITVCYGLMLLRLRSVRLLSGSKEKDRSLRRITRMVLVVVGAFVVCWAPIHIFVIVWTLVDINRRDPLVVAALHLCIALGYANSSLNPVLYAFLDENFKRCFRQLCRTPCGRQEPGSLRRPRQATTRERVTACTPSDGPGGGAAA

## {des‑NH2‑α‑pyrrole‑1‑yl}-[Dmt]-[Tic]-OH [[des-NH2-α-pyrrole-1-yl]-Dmt-Tic-OH]
  MVD Ke: 408 nM
  MVD pA2: 6.39

## {N,N‑dimethyl}-[Dmt]-[Tic]-OH (also: tritium-labelled form used as radioligand) [N,N(Me)2-Dmt-Tic-OH]
  MVD Ke: 0.28 nM
  MVD pA2: 9.4

## H-[Dmt]-[Tic]-Ala-NHMe (SMILES CNC(=O)[C@H](C)NC(=O)[C@@H]1Cc2ccccc2CN1C(=O)[C@@H](N)Cc1c(C)cc(O)cc1C) [H-Dmt-Tic-Ala-NHMe]
  MVD ED50: 1290 nM

B1: H-Dmt-Tic-NH-1-adamantane (peptide)
peptide: H-[Dmt]-[Tic]-{NH(1-Adamantyl)}
SMILES: Cc1cc(O)cc(C)c1C[C@H](N)C(=O)N1Cc2ccccc2C[C@H]1C(=O)NC12CC3CC(CC(C3)C1)C2
  MVD ED50: 870 nM
  MVD Ke: > 10000 nM

## H-[Dmt]-[Tic]-Ala-{NH(1-Adamantyl)} [H-Dmt-Tic-Ala-NH-1-adamantane]
  MVD Ke: 0.51 nM
  MVD pA2: 9.29

## {N,N‑dimethyl}-[Dmt]-[Tic]-NHMe [N,N(Me)2-Dmt-Tic-NHMe]
  MVD Ke: 0.41 nM
  MVD pA2: 9.39

## H-[Dmt]-[Tic]-Ala-NH2 [H-Dmt-Tic-Ala-NH2]
  MVD Ke: 9 nM
  MVD pA2: 8

## H-[Dmt]-[Tic]-NHMe [H-Dmt-Tic-NHMe]
  MVD ED50: 21200 nM
  MVD Ke: > 10000 nM

B2: H-Dmt-Tic-Ala-NH-tBu (peptide)
peptide: H-[Dmt]-[Tic]-Ala-NHtBu
SMILES: Cc1cc(O)cc(C)c1C[C@H](N)C(=O)N1Cc2ccccc2C[C@H]1C(=O)N[C@@H](C)C(=O)NC(C)(C)C
  MVD Ke: 0.69 nM
  MVD pA2: 9.16

## H-[Dmt]-[Tic]-Ala-OH [H-Dmt-Tic-Ala-OH]
  MVD Ke: 4 nM
  MVD pA2: 8.4

## H-[Dmt]-[dTic]-{NH(1-Adamantyl)} [H-Dmt-D-Tic-NH-1-adamantane]
  MVD Ke: > 10000 nM

## {des‑NH2‑α‑pyrrolidine‑1‑yl}-[Dmt]-[Tic]-OH [[des-NH2-α-pyrrolidine-1-yl]-Dmt-Tic-OH]
  MVD Ke: 121 nM
  MVD pA2: 6.9

## H-[Dmt]-[Tic]-{NH‑tetrazole‑5‑yl} [H-Dmt-Tic-NH-tetrazole-5-yl]
  MVD Ke: 36.3 nM
  MVD pA2: 7.44

## {N,N‑dimethyl}-[Dmt]-[Tic]-{NH(1-Adamantyl)} [N,N(Me)2-Dmt-Tic-NH-1-adamantane]
  MVD Ke: 0.87 nM
  MVD pA2: 9.06

## H-[Dmt]-[Tic]-NH2 [H-Dmt-Tic-NH2]
  MVD Ke: 42 nM
  MVD pA2: 7.2

## {N,N‑dimethyl}-[Dmt]-[dTic]-{NH(1-Adamantyl)} [N,N(Me)2-Dmt-D-Tic-NH-1-adamantane]
  MVD Ke: 128 nM
  MVD pA2: 6.91
